{"source": "patent US12404345B2", "about": "“Humanized antibodies against iRHOM2” (SCIRHOM GMBH, priority 2021, dated 2025)"}
{"target": "T1, mouse iRhom2 (Mus musculus, UniProt Q80WQ6)", "T1 construct": "MEF-DKO-miR2-FL-WT-T7 cells stably expressing mouse iRhom2 full length wild type; expressed in transfected cells; host or cells: immortalized iRhom1/2-/- DKO mouse embryonic fibroblasts, pMSCV retroviral infection", "T1 sequence (Q80WQ6 1-827)": "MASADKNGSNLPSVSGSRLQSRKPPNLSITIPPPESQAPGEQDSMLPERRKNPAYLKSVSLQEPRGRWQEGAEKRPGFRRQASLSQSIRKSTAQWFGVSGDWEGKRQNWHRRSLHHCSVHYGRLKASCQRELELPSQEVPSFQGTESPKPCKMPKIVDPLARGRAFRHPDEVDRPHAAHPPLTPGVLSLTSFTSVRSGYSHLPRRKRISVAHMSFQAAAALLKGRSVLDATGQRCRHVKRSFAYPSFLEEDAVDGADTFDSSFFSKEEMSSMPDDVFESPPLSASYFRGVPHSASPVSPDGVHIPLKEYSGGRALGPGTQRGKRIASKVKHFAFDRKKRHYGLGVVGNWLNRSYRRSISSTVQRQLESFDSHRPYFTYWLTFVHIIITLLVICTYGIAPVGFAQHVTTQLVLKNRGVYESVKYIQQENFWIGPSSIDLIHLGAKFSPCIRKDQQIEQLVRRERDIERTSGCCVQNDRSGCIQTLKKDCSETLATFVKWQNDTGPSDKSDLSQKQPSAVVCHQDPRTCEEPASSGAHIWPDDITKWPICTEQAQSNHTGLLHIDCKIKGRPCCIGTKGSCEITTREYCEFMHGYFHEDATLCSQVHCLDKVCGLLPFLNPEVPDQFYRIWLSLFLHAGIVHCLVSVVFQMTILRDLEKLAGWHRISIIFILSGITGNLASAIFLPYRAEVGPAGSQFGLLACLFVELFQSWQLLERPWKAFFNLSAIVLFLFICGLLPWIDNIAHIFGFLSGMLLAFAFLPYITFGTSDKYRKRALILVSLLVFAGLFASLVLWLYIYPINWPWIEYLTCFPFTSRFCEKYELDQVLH", "experiment": "FACS mouse cross-reactivity on MEF-DKO-miR2-FL-WT-T7 cells", "type": "binding", "conditions": "antibody at 3 μg/ml", "source_text": "Next, immortalized iRhom1/2−/− DKO MEFs were reconstituted with a tagged form of human iRhom2 to test target recognition of humanized antibodies of the invention. Additionally, iRhom1/2−/− DKO MEFs stably expressing a tagged form of mouse iRhom2 were generated in order to determine cross-reactivity of the humanized antibodies 16-B-03, 16-B-05, 16-B-07, 23-B-04, 42-B-02 and 42-B-04 of the invention with the mouse orthologue of iRhom2.\nIn brief, on day 1, Phoenix-ECO cells (American Type Culture Collection, USA) were seeded on 6-well tissue culture plates (Greiner, Germany) in standard growth medium at 8×10^5 cells per well and kept overnight at 37° C., 5% CO2. On day 2, the medium was replaced by fresh medium supplemented with chloroquine (Sigma-Aldrich, USA) at a final concentration of 25 μM. Applying the calcium phosphate method, cells were transfected with 2 μg/ml of pMSCV (Clontech, USA) empty vector, pMSCV-hiR2-FL-WT-T7 encoding human iRhom2 full length wild type C-terminally tagged with 3 consecutive copies of the T7 epitope (MASMTGGQQMG) or pMSCV-miR2-FL-WT-T7 encoding mouse iRhom2 full length wild type C-terminally tagged with 3 consecutive copies of the T7 epitope, and were kept at 37° C., 5% CO2. After 7 hours, the transfections were stopped by replacing cell supernatants with standard growth medium lacking chloroquine, and cells were incubated at 37° C., 5% CO2 to allow virus production overnight. In parallel, immortalized iRhom1/2−/− DKO MEFs as target cells for retroviral infection were seeded on 6-well tissue culture plates (Greiner, Germany) in standard growth medium at 1×10^5 cells per well and were also kept overnight at 37° C., 5% CO2. On day 3, the supernatants of Phoenix-ECO cells releasing pMSCV, pMSCV-hiR2-FL-WT-T7 or pMSCV-miR2-FL-WT-T7 ecotrophic virus were collected, filtered with 0.45 μm CA filters, and supplemented with 4 μg/ml of polybrene (Sigma-Aldrich, USA). Upon removal of medium from the immortalized iRhom1/2−/− DKO MEFs, the virus containing supernatants were added to the target cells for 4 hours at 37° C., 5% CO2 for first infection. Simultaneously, Phoenix-ECO cells were re-incubated with fresh medium, which, after another 4 hours, was filtered and used for the second infection of the respective target cell populations, again in the presence of 4 μg/ml of polybrene. Likewise, a third, but overnight infection cycle was performed. On day 4, virus containing cell supernatants were replaced by fresh standard growth medium. From day 5 onwards, cells were grown in the presence of 2 mg/ml of geneticin (G418, Thermo Fisher Scientific, USA) for the selection of immortalized MEF-DKO-EV control cells stably infected with pMSCV empty vector, MEF-DKO-hiR2-FL-WT-T7 cells stably expressing human iRhom2 full length wild type C-terminally tagged with 3 consecutive copies of the T7 epitope, and MEF-DKO-miR2-FL-WT-T7 cells stably expressing mouse iRhom2 full length wild type C-terminally tagged with 3 consecutive copies of the T7 epitope. Upon propagation, cells were stocked for future usage.\nIn brief, immortalized MEF-DKO-EV control cells, MEF-DKO-hiR2-FL-WT-T7 cells and MEF-DKO-miR2-FL-WT-T7 cells were harvested with 10 mM EDTA in PBS, washed and resuspended in FACS buffer (PBS, 3% FBS, 0.05% sodium azide), and seeded in Nunc U-bottom 96-well plates (Thermo Fisher Scientific, USA) at approximately 3×10^5 cells per well. To pellet cells and remove supernatants, the plates were centrifuged at 1,500 rpm and 4° C. for 3 minutes. For primary staining, cells were resuspended in 100 μl per well of either FACS buffer alone (controls), mouse monoclonal anti-T7 IgG (Merck Millipore, USA) at 3 μg/ml FACS buffer or the humanized antibodies 16-B-03, 16-B-05, 16-B-07, 23-B-04, 42-B-02 and 42-B-04 of the invention also at 3 μg/ml FACS buffer and incubated on ice for 1 hour. Afterwards, plates were centrifuged at 1,500 rpm and 4° C. for 3 minutes and washed twice with 200 μl per well of FACS buffer. […]"}
{"molecule": "16-B-03: humanized antibody binding human iRhom2; HCVD SEQ ID NO 1, LCVD SEQ ID NO 5 (antibody, V domains shown, antibody sequences) VH: QVTLRESGPALVKPTQTLTLTCTFSGFSLSTFALGVGWIRQPPGKALEWLAHIWWDDDKYYNPALKSRLTISKDTSKNQVVLTITNMDPVDTATYYCARITTYYYGMDYWGQGTLVTVSS VL: EIVMTQSPDFQSVTPKEKVTITCRASQSIGNHLHWYQQKPDASPKLLIKYASQSISGVPSRFSGSGSGTDFTLTINSLEAEDAATYFCQQSYQWPLTFGQGTKLEIK", "binding to mouse iRhom2 on MEF-DKO-miR2-FL-WT-T7 cells (mouse cross-reactivity)": "no significant binding"}
{"molecule": "16-B-05: humanized antibody binding human iRhom2; HCVD SEQ ID NO 9, LCVD SEQ ID NO 13 (antibody, V domains shown, antibody sequences) VH: QVTLRESGPALVKPTQTLTLTCTFSGFSLSTFALGVGWIRQPPGKALEWLAHIWWDEDKYYNPALKSRLTISKDTSKNQVVLTITNMDPVDTATYYCARITTYYYGMDYWGQGTLVTVSS VL: EIVMTQSPDFQSVTPKEKVTITCRASQSIGNHLHWYQQKPDASPKLLIKYASQSISGVPSRFSGSGSGTDFTLTINSLEAEDAATYFCQQSYNWPLTFGQGTKLEIK", "binding to mouse iRhom2 on MEF-DKO-miR2-FL-WT-T7 cells (mouse cross-reactivity)": "none of these humanized antibodies of the invention are cross-reactive"}
{"molecule": "16-B-07: humanized antibody binding human iRhom2; HCVD SEQ ID NO 17, LCVD SEQ ID NO 21 (antibody, V domains shown, antibody sequences) VH: QVTLRESGPALVKPTQTLTLTCTFSGFSLSTFALGVGWIRQPPGKALEWLAHIWWDEDKYYNPALKSRLTISKDTSKNQVVLTITNMDPVDTATYYCARITTYYYGMDYWGQGTLVTVSS VL: EIVMTQSPDFQSVTPKEKVTITCRASQSIGNHLHWYQQKPDASPKLLIKYASQSISGVPSRFSGSGSGTDFTLTINSLEAEDAATYFCQQSYQWPLTFGQGTKLEIK", "binding to mouse iRhom2 on MEF-DKO-miR2-FL-WT-T7 cells (mouse cross-reactivity)": "none of these humanized antibodies of the invention are cross-reactive"}
{"molecule": "23-B-04: humanized antibody binding human iRhom2; HCVD SEQ ID NO 25, LCVD SEQ ID NO 29 (antibody, V domains shown, antibody sequences) VH: QVTLRESGPALVKPTQTLTLTCTFSGFSLSTFGMGVGWIRQPPGKALEWLAHIWWDDEKYYNSALKSRLTISKDTSKNQVVLTITNMDPVDTATYYCARISNYGSNYWYFNVWGQGTLVTVSS VL: AIQLTQSPSSLSASVGDRVTITCRASSSVSYMYWYQQKPGKAPKVLIYDTSNLASGVPSRFSGSGSGTDYTLTISSLQPEDFATYYCQQWNAYPLTFGQGTKLEIK", "binding to mouse iRhom2 on MEF-DKO-miR2-FL-WT-T7 cells (mouse cross-reactivity)": "none of these humanized antibodies of the invention are cross-reactive"}
{"molecule": "42-B-02: humanized antibody binding human iRhom2; HCVD SEQ ID NO 33, LCVD SEQ ID NO 37 (antibody, V domains shown, antibody sequences) VH: QVTLRESGPALVKPTQTLTLTCTFSGFSLSTFGRGVGWIRQPPGKALEWLAHIWWDDEKYYNSALKSRLTISKDTSKNQVVLTITNMDPVDTATYYCARIQNYGSNYWYFDVWGQGTLVTVSS VL: AIQLTQSPSSLSASVGDRVTITCRASSRISYMFWYQQKPGKAPKVLIYDTSNLASGVPSRFSGSGSGTDYTLTISSLQPEDFATYYCQQWNSYPLTFGQGTKLEIK", "binding to mouse iRhom2 on MEF-DKO-miR2-FL-WT-T7 cells (mouse cross-reactivity)": "none of these humanized antibodies of the invention are cross-reactive"}
{"molecule": "42-B-04: humanized antibody binding human iRhom2; HCVD SEQ ID NO 41, LCVD SEQ ID NO 45 (antibody, V domains shown, antibody sequences) VH: QVTLRESGPALVKPTQTLTLTCTFSGFSLSTFGRGVGWIRQPPGKALEWLAHIWWDDEKYYNSALKSRLTISKDTSKNQVVLTITNMDPVDTATYYCARIQNYGSNYWYFDVWGQGTLVTVSS VL: AIQLTQSPSSLSASVGDRVTITCRASSRISYMFWYQQKPGKAPKVLIYDTSNLASGVPSRFSGSGSGTDYTLTISSLQPEDFATYYCQQWNAYPLTFGQGTKLEIK", "binding to mouse iRhom2 on MEF-DKO-miR2-FL-WT-T7 cells (mouse cross-reactivity)": "none of these humanized antibodies of the invention are cross-reactive"}
